PMC3548508
“And” between values parts separate entries of the source, which are not always exact repeats. Identical values can stand only once.

Legend:
[1] = molecular target: Selenomethionine-containing TraMΔ as crystallised (TraM 194-322) (Enterococcus faecalis (conjugative plasmid pIP501)); assay: crystal structure
[2] = molecular target: TraM C-terminal domain (TraM 190-322) from the Enterococcus faecalis conjugative plasmid pIP501 (Enterococcus faecalis (conjugative plasmid pIP501)); assay: cross-linking

| Substance | stoichiometry N [1] | stoichiometry N [2] |
| --- | --- | --- |
| Selenomethionine-containing TraMΔ as crystallised (TraM 194-322) (domain or fragment) | 3 |  |
| TraM C-terminal domain (TraM 190-322) from the Enterococcus faecalis conjugative plasmid pIP501 (domain or fragment) |  | 2 and 3 |
